Target: T1, lecithin:cholesterol acyltransferase (LCAT), purified from human plasma (human, UniProt P04180 25-440)
T1 sequence (looked up): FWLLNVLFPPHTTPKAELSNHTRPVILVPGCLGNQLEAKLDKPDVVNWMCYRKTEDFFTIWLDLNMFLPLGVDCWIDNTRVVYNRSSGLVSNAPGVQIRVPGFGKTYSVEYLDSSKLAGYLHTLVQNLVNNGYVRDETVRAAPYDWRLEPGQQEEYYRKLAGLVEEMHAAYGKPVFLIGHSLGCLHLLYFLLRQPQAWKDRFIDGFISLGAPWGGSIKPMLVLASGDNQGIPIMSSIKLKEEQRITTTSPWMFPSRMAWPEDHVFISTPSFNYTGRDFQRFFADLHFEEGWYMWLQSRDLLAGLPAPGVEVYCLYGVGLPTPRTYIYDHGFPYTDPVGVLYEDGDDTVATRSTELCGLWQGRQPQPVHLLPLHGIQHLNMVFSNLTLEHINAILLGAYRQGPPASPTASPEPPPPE
Experiment: cell-based or functional assay

ACTIVITY (%) LCAT: 111%
Binder: LDDLLQKWAEAFNQLLKK [peptide 237]
